Experimental findings from patent US20250092160A1 are described below.

Experiment [1] deals with SARS-CoV-2 N439K variant (pseudovirus RVP-703) (SARS-CoV-2) (UniProt P0DTC2). Nature of the experiment: cell-based or functional assay.
Experiment [2] concerns the target SARS-CoV-2 South African Δ3 B.1.351 variant (pseudovirus RVP-724) (SARS-CoV-2) (UniProt P0DTC2). Nature of the experiment: cell-based or functional assay.

“And” between values parts separate entries of the source, which are not always exact repeats. Equal entries are not always repeated.

In the case of REGN10987 (antibody), in experiment [1], the EC50 (pM) Neutralization, N439K was 2260 pM and 2220 pM; the pseudovirus neutralization, potency against REGN10933 came out at 1000 fold. Besides, in experiment [2], the EC50 (pM) Neutralization, South Africa B.1.351 is 2.48 pM and 2.37 pM.
